Measured values reported in the nanobody polyreactivity screen of Harvey et al. (2022).

Assay: yeast display, Sf9 membrane polyspecificity reagent, FACS + sequencing; frameworks hold sequencing errors
In short: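 Nanobodies from a synthetic yeast display library (Saccharomyces cerevisiae BJ5465), induced 36–48 hours with galactose, were stained 1 hour at 4 °C with 10% biotinylated, detergent-solubilized Sf9 membrane reagent, enriched on streptavidin microbeads, then FACS-sorted. Anti-HA (expression) and streptavidin (reagent binding) fluorescence set low and high (top ~1%) gates. Polyreactivity labels come from the gate of origin. Genes were colony-PCR amplified, MiSeq 2 × 250 sequenced and filtered by CDR length.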

## QVQLVESGGGLVQAGGSIRLTCAASGRIYEIYTMGWYRQATGKETEFVAGITWSGGSTYYADSVKGRFTISRDNAKNTFYLQMNSLKPEDTAVYYCATDEVYWTGYAPSLFDYWGQGTQVTVSS
  polyreactivity (PSR sort gate): low polyreactivity

## QVQLVESGVGLVQAGGSLRLSCAASGRTFAIYTMGWYRQAPGKERELVARISIRGGSTYYADSVKGRFTISRDTAKITFYLQLTSLKPEDNAVYYCAAVGYFGGYRYDYWGQGTQVSVSS
  polyreactivity (PSR sort gate): high polyreactivity

## QVQLVESRGGLVQAGGSLRLSCAASGLIFRHYAMGWYRQAPGKERELVAAITGSGSTYYADSVKGRFTISRDNAKNTVYFQMNSLKPEDTAVDYCAATVYSSGAMDYWGQGTQVTVSS
  polyreactivity (PSR sort gate): low polyreactivity

## QVQLVESGGGLFQAGGSLRLSCAASGRTITYYAMGWYRQAPGKERELVAAITWSGGSTYYADSVKGRFTISRDNAKNTVYLQMNSMKPEDTAVYYCAKEFYYSSGFDYWGQGTQVTVSS
  polyreactivity (PSR sort gate): low polyreactivity

## HVQLVESGGGLVQAGGSLRLSCAASGFTFWDYTMGWYRQAPGKERELVAAISSSGGGTYYADSVKGRFTISRDNAKNTVYLQMNSLKPEDTAVDYCNAVRFLDYWYPDTYGDWGQGTQVTLSS
  polyreactivity (PSR sort gate): low polyreactivity

## QVQLVESGGGLVQAGGSLRLSCAASGRIFRYNAMGWYRQAPGKERELVAAISTRGGNTYYADSVKGRFTISRDNAKNTVYLQMNSLKPEDTAVYYCNARSSLPYNYWGQGTQVTVSS
  polyreactivity (PSR sort gate): high polyreactivity

## QVQLVESGGGLVQAGASLRLSCAASGLIFVSNAMGWYRQAPGKERELVAAISWSGSRTYYADSVKGRFTISRDNAKINVYLHMTSLKPEDTAVFYCNAVRRGLPVVGAYDYWGQGTQVTVSS
  polyreactivity (PSR sort gate): high polyreactivity

## QVQLVESGGGLVQAGGSLRLSCAASGITLPYYAMGWYRQAPGKERELVAGISSRGGSTYYADSVKGRFTISRDNAKNTVYLQMNSLKPEDTAVYYCAAKVASTRLGPAYGYWGQGTQVTVSS
  polyreactivity (PSR sort gate): high polyreactivity

## QVQLLESGGVLDQAGGSLRLTCAASGSIFFTNAMGWYRQAPGKERELVAAIRQSGGSTFYADSVKGRFTISRDNAKNTVYLQLNSLKPEDTAVFYCNADGRHKWQYSSYDYWGQGTQLTVSS
  polyreactivity (PSR sort gate): low polyreactivity

## QVQLVESGGGLVQAGGSLRLSCAASGNIFGQYAMGWYRQAPGKEREFVAAITWSGGSTYYADSVKGRFTISRDNAKNTVYLQMNSLKPEDTAVYYCAADYGKTHRYDYDYWGQGTQVTVSS
  polyreactivity (PSR sort gate): low polyreactivity

## QVQLVESCGGLVQAGGSLRLSCAASGIIFRYYAMGWYRQAPGKEREFVASINFSGSSTYYADSVKGRFTISRDNAKNSVYLQMKSLKPEDTAVYYCAAGRRWLYDYWGQGTQVTVSS
  polyreactivity (PSR sort gate): high polyreactivity

## QVQLVESGGGLVQAGGSLRLSCAASGLIFQVYDMGWYRQAPGKERELVAAISSGSNTNYADSVKGRFTISRDNAKNTVYLQMNSRKPEDTAVYYCAASWGYGALTPDMGYWGQGTQVTVSS
  polyreactivity (PSR sort gate): low polyreactivity

## QVQLVESGGGLVQAGGSLRLTCAATGSTFHLYGMGWYRKAPGKESELVAAITKRGTSTYYADSVKGRFTISRDNAKNTVYLQINSLKPEDTAVYYCADEYTKEQRGFDYWGQGTQVTLSS
  polyreactivity (PSR sort gate): high polyreactivity

## QVQLVESGGGLVQAGGSLRLSCAASGSIFFGNDKGWYRQAPGKERELVAGISNGGRTNYADSVKGRFTISRDNAKNTVYLQMNSLKPEDTAVYYCAKHPVYIYWSRVLVGYYSWGQGTQVTVSS
  polyreactivity (PSR sort gate): low polyreactivity

## QVQLVESGGGLVQAGGSLRLSCAASVRIFSGYAMGWYRQAPGKERELVAAISQRGGSTTYADSVKGRFTISRDNAKNTVYLQMNSLKPEDTAVYYCAKRYTYPSGYDYWGQGTQVTVSS
  polyreactivity (PSR sort gate): low polyreactivity

## QVQLGESGGGLVQAGGSLRLSCAASGRTSTGYAMGWYRQAPGKERELVAGIDKIGGRTYYADSVKGRFTISRDNAKNTVYLQMNSLKPEDTAVYYCAKTRYFSVGTHWDYYYWGQGTQVTVSS
  polyreactivity (PSR sort gate): high polyreactivity

## QVQLVESGGGLVQPGGSLRLSCAASGFIFPTNVMGWSRQAPGKEREFVASITWRGGGTYYADSVKGRFRISRDNAKNTVYVQMNSLKPEDTAVYYCAAGRSWSSYWKYDYWGQGTQVTVSS
  polyreactivity (PSR sort gate): low polyreactivity

## QVQLVESGGGLVQAGGSLRLSCAASGRNFPYYAMGWYRQAPGKERELVAAISSSGGRTYYADSVKGRFTISRDNAKNTVYLQMNSLIPEDTAVYYCNVDAWYPYQGFLVGYYYWGQGTQVTVSS
  polyreactivity (PSR sort gate): low polyreactivity

## QVLLVESAVGLVQAVGSLRLSCAASGSICYTNGMGWYRQAPGNERELVASITRSGGSTYYADSVKGRFTISRDNAKNSVYLQMNRLKPEDTAVYYCATSWGYRGLWGLRFDYWGQGTQVSVSS
  polyreactivity (PSR sort gate): low polyreactivity

## QVQLVESGGGLVQAGGSLRLSCAASGLTFANYVMGWYRQAPGKERELVAAISGGGGSTHYADSVKGRFTISRDNAKNTVYLQMNSLKPEDTAVYYCNADKYSVYGEHPYDYWGQGTQVTVSS
  polyreactivity (PSR sort gate): low polyreactivity

## QVQLVESGGGLVQAGGSLRLSCAASGFTLIHYAMGWYRQATGKERELVAGITTSGGSTYYADSVKGRFTFSRDNAKNTVYLQMTSLKPEDTAVYYCNRLTRRWYSLRSYDYWGQGTQVTVSS
  polyreactivity (PSR sort gate): high polyreactivity

## QVQLVESGGGLVQAGGSLRLSCAASGRIYSYYAMGWYRQAPGKERELVAGIRSGGSTNYADSVKGRFTISRDNAKNTVYLQMNSLKPEDTAVYYCAARWTRWTSKRFEYWGQGTQVTVSS
  polyreactivity (PSR sort gate): high polyreactivity

## QVQLVESGGGLVQAGGSLRLICAASGRTFPRYTMGWYRQEPGNERELVAAISWRGGRTYYADSVKGRFTISLDNAKNTVYLLMNSLKPEDTAVYYCNAQKRDGSMGYWGQGTQVTVSS
  polyreactivity (PSR sort gate): high polyreactivity

## QVQLVESGGGLVQAGGSLRLSWAASGSIFFLYAMGWYRQAPAKERELVAAITSIGGSTYADSVKGRFTISRDNAKNTVYLQMNSLKPEDTAVYYCNTDEYPLTVQVQYYYWGQGTEVTVSS
  polyreactivity (PSR sort gate): low polyreactivity

## QVQLVESGGGLVQAGGSLRLSCAASGSTFYVNAMGWYRQAPGKERELVAAISRRGGSTYYADSVKGRFTISRDNAKNTVYLQMNSLKPEDTAVYYCNVVPVWRPYSLINWQKHFGYWGQGTQVTVSS
  polyreactivity (PSR sort gate): high polyreactivity

## QVQLVESGGGLVQAGGSLRLSCAASGIIFTDNAMGWYRQAPGKERELVATISWSTDNTYYADSVKGRFTISRDNAKNTVYLQMNSLKPEDTAVYYCAAEEYYAYWYQYDYWGQATQVTVSS
  polyreactivity (PSR sort gate): low polyreactivity

## QVQLVESGAGLFQAGGSLRLSCAPSGSIFAPNDMGWYRQAPGKERELVAAITSSGGRTYYADSVKGRFTISRDNAKNTVYLQMNSLKPEDTAVYYCAADHGYQYGYWGQGTHVTVSS
  polyreactivity (PSR sort gate): low polyreactivity

## QVQLVESGGGLVQAGGSLRLSCAASGSIFGQYAMGWYRQAPGKERELVAAITDTGDSTYYADSVMGRFTISRDNAKNTVYLQMNSLKPEDTAVYYCAADVYYAFGSMYYWGQGTQVTVSS
  polyreactivity (PSR sort gate): low polyreactivity

## QVQLVESGGGLVQAGGSLRLSCAASGSIFPGYTMGWYRQAPGKERELVAAITSSGGSTYYADSVKGRFTISRDNAKNTVYLQMNSLKPEDTAVYYCAADTTNYFDPFDYWGQGTQVTVSS
  polyreactivity (PSR sort gate): low polyreactivity

## QVQLVESGGGLVQAGCSLRLSCAASGRIFSRNAMGWYRQAPGKERELVAVITKRGGSTYYADSVKGRFTISRDKAKNTVYLQMNSLKPEDTAVYYCNAVPRRGIAFNHWGQGTHVTVSS
  polyreactivity (PSR sort gate): high polyreactivity

## QVQLVESGGGLVQAGGSLRLSCAASGIIFPQYTMGWYRQAPGKERQLVAAITRSGGSTDYADSVKGRFTISRDNAKNTVYLQMNSLKPEDTAVYYCAAGWWRYKYPIGSSYNYWGQGTQVTVSS
  polyreactivity (PSR sort gate): high polyreactivity

## QVQLVESGGGLVQAGGGLRLSCAASGRIFAGYAMGWYRQAPGKEREFVAAISRSGVSTYYADSVKGRFTISRDNAKNTVYLQMNSLKPEDTAVYYCNVYKGNVVEHDYWGQGTQVTVSS
  polyreactivity (PSR sort gate): high polyreactivity

## QLQLVESGGGLVQAGGSLRLSCAASGNTFYGYTMGWYRQAPGTERELVAVISSSGGRTNYADSVKGRFTISRDNAKNTVYLQMNSLKPEDTAVYYCAARSSRLPHIYGYWGQGTQVTVSS
  polyreactivity (PSR sort gate): low polyreactivity

## QVQLVDSGGGLVQAGGSLRLSCAASGSTFSYYAMGWYRQAPGKERELVAAISYSGDSTYYADTVKGRFTISRDNAKNTVYLQMNSLKPEDSAVYYCNADSPFNGNLDRYFATLDDYWGQGTQVTVSS
  polyreactivity (PSR sort gate): low polyreactivity

## QVQLVESGGGVVQARGSRRLSCAASGRSYANAMGWYRQAPGKERELVAAITKNGGGTYYADSVKGRFTISRDNAKNTVYLQMNSLKPEDTAVYYCAASYSRWYYTAKQQEFDYWGQGTQVTVSS
  polyreactivity (PSR sort gate): high polyreactivity

## QVQLVESGGGLVQAGGSLRLSCAASGRIFDINAMGWYRQAPGKEWELVAAISRGGSTYYADSVKGRFTISLDNAKNTVYLNMNSLKPEDTAVYYCNIYRYRGSTVFDGYDYWGHGTQVTVSS
  polyreactivity (PSR sort gate): high polyreactivity

## QVQLVESGGGLVQAGGSLRLSCAASGYIFTSYATMGWYRQAPGKERELVATISSGGSTNYADSVKGRVTISRDNAKNTVYLQMNSLKPEDTAVYYCYADRFYTYWGYSWVYPSGSWGQGTQVTVSS
  polyreactivity (PSR sort gate): low polyreactivity

## QVQLVESGGGLVQAGGSLRLSCAASGGIFWYYTRGWYRQAPGKERELVATISSGGRTYYADSVKGRFTISRDNAKNTVYLQMNSLKPEDTAVYYCAKSYRRRQGYSYWGQGTQVTVSS
  polyreactivity (PSR sort gate): high polyreactivity

## QVQLVESGGGLVQAGGSLRLSCAASGFIFRRYAMGWYRQAPGKERELVAAITAGGGNTYYADSVKGRFTISRDNAKNTVYLQMHSLKPEDTAVYYCAAAGRWYYHGYNYWGQGTQVTVSS
  polyreactivity (PSR sort gate): high polyreactivity

## QVQLVESGGGLVQAGGRLRLSCAASGSTLDTYAMGWYRQAPGKERELVAGITWSGGSTYYADSVKGRFTISRDNAKNTVYLQMNSLKPEDTAVYYCAAYSPYGPRYDYWGQGTQVTVSS
  polyreactivity (PSR sort gate): low polyreactivity

## QVQLVESGGGFVQAGGSLRLSCAASGGIFGSYAIGWYRQAPGKERELVADITQSGGRTRNADSVKGRFTSSRDNAKNTVYLQKNSLKPEDTALYYCNAQDVDSGDDYDYWGQGTQVTVSS
  polyreactivity (PSR sort gate): low polyreactivity

## QVQLVESGGGLVQAGGSLRLSCAASGSTFPYNTMGWYRQAPGKEREFVAAITGDGGTTYYADSVKGRFTISRDNAKNTVYLQMYSLKPEDTAVYYSAVPYPAEGYGGDYWGQGTQVTVSS
  polyreactivity (PSR sort gate): low polyreactivity

## QVQLVESGGGLVQAGGSLRLSCAASGSIFKYYAMGWYRQAPGKERELVAAISSGGRTYYADSVKGRFTISRDNAKNTVYLQMNSLKPEDTAVYYCNRGTVNSWARGYWGQGTQVTVSS
  polyreactivity (PSR sort gate): high polyreactivity
